Measured values: the supplement of paper PMC9112550, “Optimization of the antimicrobial peptide Bac7 by deep mutational scanning” (BMC Biology, 2022)

Test system: Escherichia coli TOP10
Assay: shrunken log2 fold change of peptide-encoding DNA abundance (4.5 h post-induction vs induction); higher = less antimicrobial activity (less host growth inhibition)
Settings: time post-induction: 4.5 h; library: site-saturation at positions 5, 18, 19, 20
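Further: peptides expressed intracellularly from a pBAD plasmid library in pooled LB shake-flask culture, induced with 0.3% L-arabinose, DNA abundance read by NGS, three biological replicates, DESeq2 with apeglm shrinkage.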

Sequence	shrunken log2 fold change
RRIRGRPPRLPRPRPRPIPVPRP	0.0104
RRIRGRPPRLPRPRPRPIRAPRP	0.602
RRIRGRPPRLPRPRPRPISIPRP	0.199
RRIRGRPPRLPRPRPRPITCPRP	-0.00623
RRIRGRPPRLPRPRPRPITLPRP	0.217
RRIRGRPPRLPRPRPRPIVEPRP	0.194
RRIRGRPPRLPRPRPRPIYAPRP	0.14
RRIRGRPPRLPRPRPRPIYPPRP	0.119
RRIRGRPPRLPRPRPRPIYRPRP	0.2
RRIRGRPPRLPRPRPRPIYSPRP	-0.05
RRIRGRPPRLPRPRPRPKCHPRP	0.78
RRIRGRPPRLPRPRPRPKDMPRP	0.213
RRIRGRPPRLPRPRPRPKDPPRP	0.517
RRIRGRPPRLPRPRPRPKDRPRP	0.89
RRIRGRPPRLPRPRPRPKEHPRP	0.627
RRIRGRPPRLPRPRPRPKGIPRP	0.529
RRIRGRPPRLPRPRPRPKGYPRP	0.214
RRIRGRPPRLPRPRPRPKHLPRP	0.0257
RRIRGRPPRLPRPRPRPKHRPRP	0.449
RRIRGRPPRLPRPRPRPKHTPRP	0.743
RRIRGRPPRLPRPRPRPKIHPRP	0.373
RRIRGRPPRLPRPRPRPKIPPRP	0.0163
RRIRGRPPRLPRPRPRPKLIPRP	0.479
RRIRGRPPRLPRPRPRPKMGPRP	1.21
RRIRGRPPRLPRPRPRPKNSPRP	0.252

Sequence	shrunken log2 fold change
RRIRGRPPRLPRPRPRPKPHPRP	0.854
RRIRGRPPRLPRPRPRPKPNPRP	1.05
RRIRGRPPRLPRPRPRPKRCPRP	0.788
RRIRGRPPRLPRPRPRPKRGPRP	0.919
RRIRGRPPRLPRPRPRPKRTPRP	1.01
RRIRGRPPRLPRPRPRPKTFPRP	0.292
RRIRGRPPRLPRPRPRPKTIPRP	0.445
RRIRGRPPRLPRPRPRPKTWPRP	0.155
RRIRGRPPRLPRPRPRPKYRPRP	0.000233
RRIRGRPPRLPRPRPRPLEDPRP	0.205
RRIRGRPPRLPRPRPRPLEPPRP	0.231
RRIRGRPPRLPRPRPRPLEQPRP	0.435
RRIRGRPPRLPRPRPRPLFEPRP	0.739
RRIRGRPPRLPRPRPRPLFNPRP	0.117
RRIRGRPPRLPRPRPRPLFRPRP	0.444
RRIRGRPPRLPRPRPRPLGGPRP	0.615
RRIRGRPPRLPRPRPRPLGIPRP	0.178
RRIRGRPPRLPRPRPRPLHKPRP	0.714
RRIRGRPPRLPRPRPRPLHYPRP	-0.0826
RRIRGRPPRLPRPRPRPLIRPRP	0.0808
RRIRGRPPRLPRPRPRPLIYPRP	0.105
RRIRGRPPRLPRPRPRPLKMPRP	0.27
RRIRGRPPRLPRPRPRPLKNPRP	0.459
RRIRGRPPRLPRPRPRPLKTPRP	0.58
RRIRGRPPRLPRPRPRPLLDPRP	2.07

Sequence	shrunken log2 fold change
RRIRGRPPRLPRPRPRPLMFPRP	0.603
RRIRGRPPRLPRPRPRPLMWPRP	0.4
RRIRGRPPRLPRPRPRPLNAPRP	0.908
RRIRGRPPRLPRPRPRPLPNPRP	0.781
RRIRGRPPRLPRPRPRPLQQPRP	0.28
RRIRGRPPRLPRPRPRPLRFPRP	0.917
RRIRGRPPRLPRPRPRPLRMPRP	0.848
RRIRGRPPRLPRPRPRPLSIPRP	0.363
RRIRGRPPRLPRPRPRPLSSPRP	0.598
RRIRGRPPRLPRPRPRPLTSPRP	0.167
RRIRGRPPRLPRPRPRPLVCPRP	0.584
RRIRGRPPRLPRPRPRPLYFPRP	-0.131
RRIRGRPPRLPRPRPRPMCIPRP	0.166
RRIRGRPPRLPRPRPRPMDDPRP	0.994
RRIRGRPPRLPRPRPRPMDPPRP	0.00995
RRIRGRPPRLPRPRPRPMFIPRP	0.0775
RRIRGRPPRLPRPRPRPMGIPRP	0.0179
RRIRGRPPRLPRPRPRPMHIPRP	1.77
RRIRGRPPRLPRPRPRPMINPRP	0.574
RRIRGRPPRLPRPRPRPMKEPRP	0.31
RRIRGRPPRLPRPRPRPMLDPRP	0.485
RRIRGRPPRLPRPRPRPMLNPRP	0.477
RRIRGRPPRLPRPRPRPMLYPRP	0.322
RRIRGRPPRLPRPRPRPMPFPRP	0.118
RRIRGRPPRLPRPRPRPMPLPRP	0.606
